Laboratory results published in the domain aggregation screens of Martell et al. (2025).

Test: soluble fraction after stress (log2 fold change); higher = more stays soluble; pooled small domains, quantitative proteomics
Conditions: stress: 50 degC
Outline: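 Quantitative proteomics served as the high-throughput read-out for pooled custom libraries of small protein domains. Each was stressed at 50°C. Aggregation propensity is expressed as the base-two log fold change in soluble protein after stress. A higher value means a larger share of the protein remains in solution.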

| Sequence | soluble fraction (log2) |
| --- | --- |
| HMSNIQLVENLYRLRKAHHYTQQEISDLLNISRQAYSNYETSKRTPDLDSLMRLADIYGVSLDQLVNHP | -1.45 |
| HMEAYSAEAVRFRIKAMIESETVDDVMSDDKIVERLLADGVDIARRTVAKYREAMNIPSSVKRRRKLKGM | -1.53 |
| HMDPEEQIQSREIWEAVERALDGMQEKGRRVVIALLEGQTQLEVSRAAGISQPLISYYLKSFRTKVRTELG | -0.48 |
| HMLTWNQLGLITKPVVFLDGTGYYARLFEAFEHMISTGFVKENYRAMMNRATSVEEAVRIASSPAPKVD | -0.0676 |
| HMDGKPSLIISNGQINYKEMVKLRYSLEDLLFQLRQNSIKSIEEVEYAFLESNGKLSIFPYNFL | -1.51 |
| HMSQIDLQIGHKIKSKRRKLGISQADMAKKLYISPSYLNLIESGKRKINVDLLLKLSNELGIEMSDIS | -0.478 |
| HMENYQIETFVKFIEESTGEDGVAFEDLFQNFTSRPAVITMFLALLEALRRNSIRIFQKEEFSQILIYPK | 0.084 |
| HMENRILLSEDSLKHLAQDIPIDIIEKLSVLKDQIYHRYDDFNSIVQGLLGGENYLKYKDNILSFVEQ | 0.0624 |
| HMDVLSQYGSRGEEVGKIQTRLKSWGYFSGEVTGYYGSQTTEAVKRFQQKHGLSATGVADRKTLELIGIS | -0.108 |
| HMRELSDFEKLLFTTTLERKMINLAMLLTRSNKADSKDLIQDSYLKAIENQVQFNGNNIDAWVITILKNTF | 0.139 |
| HMDLFSAVVHHIVGQQISTKAQATIWKRMRDEFGVVDAAAVLGAGVEKLQSFGMTFRKAEYITDFARKIE | -2.51 |
| HMDTFYKNLSKKIKTIREKLSFSQEALAKELGISRVAISQIENGDRKISAEEIAKLSRVFNVPTDILLN | 0.187 |
| HMVDQAFQTQLKNIQARTGKNLDELYAFIRASGLVKHGEIRDLAKRELSLGHGDANTLAKFYLESLAAAA | 0.269 |
| HMETISEIWRLIDGLDEIYRVPLTMYYRSNRSVREIAETLGLSARTVETRIYRARRMIREKWSN | -2.23 |
| HMPLLELPDDFYPAWKPKTIYVQGQRIMLDGVAFEAKWWTQGDNPASGQADPGSSPWRTLTQEEIAKLLE | -0.901 |
| HMELTVPDFTNMSLEDAINLAEKRDVRLEVTDSVFVKRLGRGFIYSQNPVAGSKVKKGRRILITINAIN | -2.53 |
| HMPPDLSEAIQKRIEGKTDEALEILRKLYNEYPESTEIITMLGRTLLDAEEYALAAFRLEQALDLGG | -0.569 |
| HMAKNSVLTIELWNSTAFKWRKDTEPYSESMSVDFNRSVRLTDGISIMFSKFGFVPGIQYLIPLQT | -0.0652 |
| HMYAGTWISESGQWKYRNDDGSFAKGWFQDLDSRWYYFDANGHMLSDTLTPDGYRLGEDGAWVND | -0.638 |
| HMASMEDILAEAKTKFQEGDLFKSVNEGIQGTHKLTLPLRIKESRIVDASGAAVYREGIWATVDK | 0.108 |
| HMSVNAPMPGKIVNVLVSEGQKVNSGDVLLILEAMKMQNEIAATQAGTVKAINVAAGQSVKVGDALVN | 0.108 |
| HMTAFEPYLVKVMASVLNIRKGPGTSYAITGQIKDKGTYTIVAESGSWGKLKSGAGWISLSYTSKAGKA | -0.67 |
| HMKPTVKKLLAALPELRSGQPLHLSVATRKLRDAGLLGKNASSPTLFRNYVAQFELIPENQPNAVRYR | -0.551 |
| HMESWNRARILEKIRELHAQGVALNNASMRRLGYRGMMEAAARPQNFGSWEAAVRAAGIDYDRV | -0.00832 |
| HMGKFMVQVGAFSRINGAEITRTKYDNLGTHKAIIKNLDGMNRVFLTGFLSEDEARDFIASSNLKGAFIIR | -1.66 |
| HMVLELRIGQIVRGVLLQLVGEREGIVSVGGVPVRARLEAEIPLGRGVMLQVQPGSDANNILLKPV | -0.515 |
| HMALKQADFDFIRQMIQQRAAIVLDDNKHYFVESRLGPVVEETGSKSLDQLIDQLRSSSNSLLQQKVTEAI | -0.199 |
| HMDEEAIELTQEVMKLPPKQREVILLYYYHGLTGKEIAKALGISGAAVSKRLKQAKNQLHFALK | -0.0921 |

| Sequence | soluble fraction (log2) |
| --- | --- |
| HMFEATGKITGTEVSFRRKPTTDSERILFFDINTEFRVIGINNGWYKGVYQGKTGYVRSDFVEIVGG | -0.162 |
| HMVSGSPTVDILMQRGLEYQQQENLEAARDAFDRAINLKPDYAEAWNRRAVLFFNEGKYDEAIADLETAIT | 0.077 |
| HMKEKQLMTLDDDLYAFLLKHPGIIQKDIYNHFPYDIKGVIADTLYAWDKTGKIKRTKSGNSYIIYT | -0.0536 |
| HMKGVENLSDIDIQKALNNARANLSKNKAKLEQAGDDEKKKASALAMIQKWETTKKAIEEEIEARKKKSLN | -0.296 |
| HMQYFDIETEIQKFIKSENNLSDFDKETLQSFLYQLSKGSPEENTAKKVVDILNKFLPLTTAIINMIKALT | 0.168 |
| HMKNEFRVYPNPANKEIVTFNQTQDIEVYDTLGKLVLKAKNTNTLDTKSFHSGIYFIKTGSGLTRKLVV | 0.107 |
| HMADTFVMPDLVYRRYEPVRGYFERGGFHMGAVKFEPYEGISDGTILRQNPLPGHPLRRRDVISLVVAAS | -2.23 |
| HMPQEMIEILATPNGWLRVRQGPGTNYPEITKVNSGEEFPLLEEKDSWFKIRIEEGQEGWISSQYAQKEE | -0.0402 |
| HMIVNTTRAPYLLGETEQDAMRLARQAGLVPEIVRQSSAEPAGTVILQSHDFDYRMRRGSVILITVSTGPL | -2.15 |
| HMSSSYMVRITTSVLNVRKGPGTNYGITTKVKKGEVYTIVAEEKNGNTTWGKLKSGTGYISLGYTER | -1.29 |
| HMSKSKSEIDKDPHFWSSLFQRIGEGESLRKIAKDSKIPKSTLWAWIRNDPQLALRYSEAQQ | 0.064 |
| HMARAVSPLEAIPGVGPRRRQQLLKQLGGMQEVARAGVEDLSRVPGISRALAQQIYDAFHGD | -0.149 |
| HMEESTYQWNNFVRDFYASRVSAQYTNKLKVAAILWHHVKNTPQSKIYHDNLVSKYAEEINYFK | -2.51 |
| HMTDEYYSYIGKTGTTITVLRPAGIAEVEGERLNVVSEGEFIRKGAAILVKEVEGARILVEEVN | -0.381 |
| HMKLQIQNIEIDKKISELAEGVSAEKLPFLAKLIDRSKLLNDKGEINEDSVKAAIEEVVKAFPDFK | 0.081 |
| HMFPTLNEDEQTIVSALQKINDQPINTLSIHTALPIPRLTSLLFQLEIKGVIKQLAGGTYHVL | -0.427 |
| HMPRRSYLDARKKLLGMLNSPDFNSGDQIPAERELSEVLGISRVTVRKIITELIDEGVLERRGNQGTWLVD | -0.378 |
| HMNPSAFSEYSFELLQSALLKKKIDENLSNQTIARDAGVSEAFVQKVLTNNVKRPSVKNRVRMISYLGLD | -1.22 |
| HMATTMSADWRPSEDAVGILVNAEINARFIEDAIPEFVLYWRERGAVHGAWNSKFIEHIRRQWAKFSAS | -2.2 |
| HMQVPWYQRLKEKRLEYGVSQNKLATHIGISRQYMSEIETGKVTPSDSLQATLFDILEQFNPDA | -0.363 |
| HMGVGVPVTLLLEKLGEDTLSAQQIMERLGLKSRASFRKVYLVPALEQKLIEMEFPDKPNSSKQRYRR | -0.853 |
| HMQDLTAQQQAILSFLKEHPKATRKEISENIPNITEDNIRYNLSQLQELGFVKSMGDSFIRIAI | 0.0658 |
| HMIDLPEAFIQQLKEAVDVGDVTGLRELLGQLRRRYPQQSALSDEAERLLREFDFERLAQLFEGLD | -1.42 |
| HMFDLDIEQIANDLKHGVMPNLYGLSLQDALYLLEAKGIRVKVAGSGSVVNQSIKTGAYVGSGSVLKLEL | -1.26 |
| HMNQKKFIQADYEDRLFDHLAFEVKDMEKIISMMRREKFTITDEPFRLSPTGSLIAFVEDPDRTLIELIER | -0.32 |
| HMGVPVTAPMPGKVLKVTVSVGAAVKNGDLVLVLEAMKMENEIFATANGVVKEIRSREGDTVNSGDVMMVI | -0.533 |
| HMSEMDNMEWVREQYFQNMIYEIGEWVRDKKTGIVGEVVKRGTNYVTVVQEDFSLHKIWLEDLETTEK | -0.821 |
